Reference: paper PMC2532717 (Nucleic Acids Research, 2008)
Residue numbers refer to the chain shown, from its start.

B1: RecA (natural protein, B. subtilis, UniProt P16971 1-348, looked up)
chain: MSDRQAALDMALKQIEKQFGKGSIMKLGEKTDTRISTVPSGSLALDTALGIGGYPRGRIIEVYGPESSGKTTVALHAIAEVQQQGGQAAFIDAEHALDPVYAQKLGVNIEELLLSQPDTGEQALEIAEALVRSGAVDIVVVDSVAALVPKAEIEGDMGDSHVGLQARLMSQALRKLSGAINKSKTIAIFINQIREKVGVMFGNPETTPGGRALKFYSSVRLEVRRAEQLKQGNDVMGNKTKIKVVKNKVAPPFRTAEVDIMYGEGISKEGEIIDLGTELDIVQKSGSWYSYEEERLGQGRENAKQFLKENKDIMLMIQEQIREHYGLDNNGVVQQQAEETQEELEFEE
B2: RecUK56A (enzyme, B. subtilis)
chain: MIRYPNGKTFQPKHSVSSQNSQKRAPSYSNRGMTLEDDLNETNKYYLTNQIAVIHAKPTPVQIVNVHYPKRSAAVIKEAYFKQSSTTDYNGIYKGRYIDFEAKETKNKTSFPLQNFHDHQIEHMKQVKAQDGICFVIISAFDQVYFLEADKLFYFWDRKEKNGRKSIRKDELEETAYPISLGYAPRIDYISIIEQLYFSPSSGAKG
B3: RecUR71A (enzyme, B. subtilis)
chain: B2 chain with A56K, R71A

Molecular target: the molecule itself
Test: cross-linking

| Protein | binding result | stoichiometry N |
| --- | --- | --- |
| B1 | binds |  |
| B2 |  | 2 |
| B3 |  | 2 |
